Data set [1] deals with the molecule itself. The data set can be described thus: self-assembly; negative-stain EM.
Data set [2] concerns the molecule itself. Nature of the data set: self-assembly; heparin and SEC purification, EM.
Data set [3] deals with the molecule itself. Nature of the data set: self-assembly; EM.

Experimental findings from patent US20250059559A1 (FLAGSHIP PIONEERING INNOVATIONS V, published 2025) are described below.

B1: Ring 2 ORF1 fused to an N-terminal HIS6-tag (HIS-ORF1) (other)
chain: MPYYYRRRRYNYRRPRWYGRGWIRRPFRRRFRRKRRVRPTYTTIPLKQWQPPYKRTCYIKGQDCLIYYSNLRLGMNSTMYEKSIVPVHWPGGGSFSVSMLTLDALYDIHKLCRNWWTSTNQDLPLVRYKGCKITFYQSTFTDYIVRIHTELPANSNKLTYPNTHPLMMMMSKYKHIIPSRQTRRKKKPYTKIFVKPPPQFENKWYFATDLYKIPLLQIHCTACNLQNPFVKPDKLSNNVTLWSLNTISIQNRNMSVDQGQSWPFKILGTQSFYFYFYTGANLPGDTTQIPVADLLPLTNPRINRPGQSLNEAKITDHITFTEYKNKFTNYWGNPFNKHIQEHLDMILYSLKSPEAIKNEWTTENMKWNQLNNAGTMALTPFNEPIFTQIQYNPDRDTGEDTQLYLLSNATGTGWDPPGIPELILEGFPLWLIYWGFADFQKNLKKVTNIDTNYMLVAKTKFTQKPGTFYLVILNDTFVEGNSPYEKQPLPEDNIKWYPQVQYQLEAQNKLLQTGPFTPNIQGQLSDNISMFYKFYFKWGGSPPKAINVENPAHQIQYPIPRNEHETTSLQSPGEAPESILYSFDYRHGNYTTTALSRISQDWALKDTVSKITEPDRQQLLKQALECLQISEETQEKKEKEVQQLISNLRQQQQLYRERIISLLKDQ
notes: also called Ring 2 HIS-ORF1; not shown: N-terminal HIS6-tag
Take B1: the binding result in data set [1] is “binds”.

B2: untagged Ring2 ORF1 (other)
chain: B1 chain
notes: also called LY2 ORF1
On to B2, for which, in data set [2], the binding result was “binds”.

B3: Ring2 ORF1 with a deletion of the C-terminus amino acids 611-666 (pRTx-2652), Ring2 AnelloVLP (other)
chain: MPYYYRRRRYNYRRPRWYGRGWIRRPFRRRFRRKRRVRPTYTTIPLKQWQPPYKRTCYIKGQDCLIYYSNLRLGMNSTMYEKSIVPVHWPGGGSFSVSMLTLDALYDIHKLCRNWWTSTNQDLPLVRYKGCKITFYQSTFTDYIVRIHTELPANSNKLTYPNTHPLMMMMSKYKHIIPSRQTRRKKKPYTKIFVKPPPQFENKWYFATDLYKIPLLQIHCTACNLQNPFVKPDKLSNNVTLWSLNTISIQNRNMSVDQGQSWPFKILGTQSFYFYFYTGANLPGDTTQIPVADLLPLTNPRINRPGQSLNEAKITDHITFTEYKNKFTNYWGNPFNKHIQEHLDMILYSLKSPEAIKNEWTTENMKWNQLNNAGTMALTPFNEPIFTQIQYNPDRDTGEDTQLYLLSNATGTGWDPPGIPELILEGFPLWLIYWGFADFQKNLKKVTNIDTNYMLVAKTKFTQKPGTFYLVILNDTFVEGNSPYEKQPLPEDNIKWYPQVQYQLEAQNKLLQTGPFTPNIQGQLSDNISMFYKFYFKWGGSPPKAINVENPAHQIQYPIPRNEHETTSLQSPGEAPESILYSFDYRHGNYTTTALSRISQDWALKDTVSK
notes: also called Ring2 delCterm (Δ611-666) (7047); Ring2 AnelloVLP 2652
Regarding B3, the binding result in data set [3] is on record as “binds”.

B4: Ring 10 ORF1 fused to an N-terminal HIS6-tag (HIS-ORF1) (other)
chain: MPWWYRRRSYNPWRRRNWFRRPRKTIYRRYRRRRRWVRRKPFYKRKIKRLNIVEWQPKSIRKCRIKGMLCLFQTTEDRLSYNFDMYEESIIPEKLPGGGGFSIKNISLYALYQEHIHAHNIFTHTNTDRPLARYTGCSLKFYQSKDIDYVVTYSTSLPLRSSMGMYNSMQPSIHLMQQNKLIVPSKQTQKRRKPYIKKHISPPTQMKSQWYFQHNIANIPLLMIRTTALTLDNYYIGSRQLSTNVTIHTLNTTYIQNRDWGDRNKTYYCQTLGTQRYFLYGTHSTAQNINDIKLQELIPLTNTQDYVQGFDWTEKDKHNITTYKEFLTKGAGNPFHAEWITAQNPVIHTANSPTQIEQIYTASTTTFQNKKLTDLPTPGYIFITPTVSLRYNPYKDLAERNKCYFVRSKINAHGWDPEQHQELINSDLPQWLLLFGYPDYIKRTQNFALVDTNYILVDHCPYTNPEKTPFIPLSTSFIEGRSPYSPSDTHEPDEEDQNRWYPCYQYQQESINSICLSGPGTPKIPKGITAEAKVKYSFNFKWGGDLPPMSTITNPTDQPTYVVPNNFNETTSLQNPTTRPEHFLYSFDERRGQLTEKATKRLLKDWETKETSLLSTEYRFAEPTQTQAPQEDPSSEEEEESNLFERLLRQRTKQLQLKRRIIQTLKDLQKLE
notes: also called Ring 10 HIS-ORF1; not shown: N-terminal HIS6-tag
B4: the binding result in data set [1] is reported as “binds”.

B5: full-length Ring 10 ORF1 (residues 1-672) (other)
chain: B4 chain
notes: also called Ly1 ORF1; full-length ORF1
On to B5, for which the binding result in data set [1] is given as “binds”.

B6: Ring 10 ORF1 delARM delCTD (residues 2-45 and 552-672 deleted) (other)
chain: MKIKRLNIVEWQPKSIRKCRIKGMLCLFQTTEDRLSYNFDMYEESIIPEKLPGGGGFSIKNISLYALYQEHIHAHNIFTHTNTDRPLARYTGCSLKFYQSKDIDYVVTYSTSLPLRSSMGMYNSMQPSIHLMQQNKLIVPSKQTQKRRKPYIKKHISPPTQMKSQWYFQHNIANIPLLMIRTTALTLDNYYIGSRQLSTNVTIHTLNTTYIQNRDWGDRNKTYYCQTLGTQRYFLYGTHSTAQNINDIKLQELIPLTNTQDYVQGFDWTEKDKHNITTYKEFLTKGAGNPFHAEWITAQNPVIHTANSPTQIEQIYTASTTTFQNKKLTDLPTPGYIFITPTVSLRYNPYKDLAERNKCYFVRSKINAHGWDPEQHQELINSDLPQWLLLFGYPDYIKRTQNFALVDTNYILVDHCPYTNPEKTPFIPLSTSFIEGRSPYSPSDTHEPDEEDQNRWYPCYQYQQESINSICLSGPGTPKIPKGITAEAKVKYSFNFKWGGDLPPMST
notes: also called Ring 10 delARM delCTD
In the case of B6, the binding result in data set [1] was “binds”.
